Source: patent US20240124590A1 (ULTRAHUMAN EIGHT, published 2024)

How the values were obtained:
[1] = target: T1, recombinant ectodomain of human VEGFR2 (human, UniProt P35968 20-764); assay: direct ELISA
T1 construct: whole entry named

[2] = target: T2, recombinant ectodomain of rhesus VEGFR2 (rhesus); assay: direct ELISA
T2 construct: whole entry named
T2 chain: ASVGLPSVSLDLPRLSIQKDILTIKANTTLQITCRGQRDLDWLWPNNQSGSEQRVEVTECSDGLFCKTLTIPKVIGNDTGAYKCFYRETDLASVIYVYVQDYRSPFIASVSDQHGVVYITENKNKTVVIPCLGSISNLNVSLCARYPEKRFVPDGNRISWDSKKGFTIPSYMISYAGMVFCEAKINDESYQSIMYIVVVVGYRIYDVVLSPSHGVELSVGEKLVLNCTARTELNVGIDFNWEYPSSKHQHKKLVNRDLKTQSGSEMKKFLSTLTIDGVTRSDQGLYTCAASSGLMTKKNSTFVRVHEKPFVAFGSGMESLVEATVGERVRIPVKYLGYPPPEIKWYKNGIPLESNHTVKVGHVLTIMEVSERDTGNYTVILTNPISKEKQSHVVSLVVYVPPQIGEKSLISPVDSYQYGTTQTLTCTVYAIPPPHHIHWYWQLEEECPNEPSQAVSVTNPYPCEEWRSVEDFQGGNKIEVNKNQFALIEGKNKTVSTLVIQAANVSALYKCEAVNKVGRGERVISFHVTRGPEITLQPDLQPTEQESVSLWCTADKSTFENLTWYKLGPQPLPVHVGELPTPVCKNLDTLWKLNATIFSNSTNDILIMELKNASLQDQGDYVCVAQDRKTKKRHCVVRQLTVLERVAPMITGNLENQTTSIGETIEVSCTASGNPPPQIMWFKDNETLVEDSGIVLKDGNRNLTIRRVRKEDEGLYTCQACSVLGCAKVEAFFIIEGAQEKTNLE

BSA protein = target: T3, BSA protein (UniProt P02769 25-607); assay: direct ELISA
T3 construct: Negative-control coat of the ELISA
T3 sequence (P02769 25-607 limits assumed): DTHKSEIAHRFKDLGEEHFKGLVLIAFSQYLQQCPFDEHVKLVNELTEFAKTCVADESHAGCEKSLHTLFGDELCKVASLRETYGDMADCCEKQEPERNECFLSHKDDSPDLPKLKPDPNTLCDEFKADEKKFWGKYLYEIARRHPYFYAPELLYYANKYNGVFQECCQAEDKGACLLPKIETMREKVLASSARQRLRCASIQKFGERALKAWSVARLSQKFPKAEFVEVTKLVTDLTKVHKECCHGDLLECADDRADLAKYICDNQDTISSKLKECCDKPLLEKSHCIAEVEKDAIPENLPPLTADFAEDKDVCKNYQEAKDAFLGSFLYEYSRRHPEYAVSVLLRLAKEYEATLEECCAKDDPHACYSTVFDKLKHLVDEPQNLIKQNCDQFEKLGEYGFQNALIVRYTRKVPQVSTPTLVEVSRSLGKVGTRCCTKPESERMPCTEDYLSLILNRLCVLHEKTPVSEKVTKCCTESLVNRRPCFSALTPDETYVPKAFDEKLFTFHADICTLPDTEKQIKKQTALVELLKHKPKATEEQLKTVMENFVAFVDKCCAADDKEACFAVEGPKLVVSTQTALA

[3] = target: T4, human PD1 expressed on cells (human, UniProt Q15116 25-288); assay: flow cytometry, PD1 CHO-K1 cells
T4 construct: also called human PD1+ CHO cells; PD1-transfected HEK293 cells
T4 sequence (Q15116 25-288 limits assumed): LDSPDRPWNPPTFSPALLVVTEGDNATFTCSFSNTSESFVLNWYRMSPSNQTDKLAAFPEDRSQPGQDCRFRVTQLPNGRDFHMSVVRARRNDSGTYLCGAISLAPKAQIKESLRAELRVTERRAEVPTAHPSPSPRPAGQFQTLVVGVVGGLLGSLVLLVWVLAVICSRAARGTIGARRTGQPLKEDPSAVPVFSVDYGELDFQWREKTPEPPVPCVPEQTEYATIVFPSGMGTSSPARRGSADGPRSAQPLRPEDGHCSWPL
Procedure: (§1) Purified IgGs were tested in FACs for binding to human and cyno PD1 expressed on CHO-K1 stable cell lines and CHO-K1 wild-type cells. […] Binding of IgGs was detected with a mouse anti-human IgG conjugated to FITC. Results were analyzed by examining the Mean Fluorescence Intensity (MFI) of 10000 cells per sample in the BL-1 channel detector of a flow cytometer (Attune™ NxT Acoustic Focusing Cytometer, Invitrogen/ThermoFisher Scientific).
(§2) Antibodies to PD1 were analysed for concentration-dependent binding at the cell surface via flow cytometry. Initial analyses were performed on CHO cells stably-transfected with human or cyno PD1.

[4] = target: T5, cyno PD1 expressed on CHO-K1 cells (cynomolgus monkey, UniProt Q15116 25-288 (human entry)); assay: flow cytometry, PD1 CHO-K1 cells
T5 construct: also called cyno PD1+ CHO cells
T5 chain: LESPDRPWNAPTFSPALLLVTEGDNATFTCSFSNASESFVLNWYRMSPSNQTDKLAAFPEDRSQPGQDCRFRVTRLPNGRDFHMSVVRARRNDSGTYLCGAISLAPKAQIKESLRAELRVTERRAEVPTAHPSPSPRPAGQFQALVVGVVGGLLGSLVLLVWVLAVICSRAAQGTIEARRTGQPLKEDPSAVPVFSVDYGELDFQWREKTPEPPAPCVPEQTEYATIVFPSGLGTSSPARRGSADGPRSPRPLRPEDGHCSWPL
Procedure: as §1, §2

[5] = target: T6, biotinylated human PD1-His/AviTag (human, UniProt Q15116 25-170, limits assumed, biotinylated); assay: Alphascreen competition vs IgG1-Mab005 (humanized)
T6 construct: Alphascreen antigen; whole entry named; also called biotinylated monomeric human PD1; not shown: His/AviTag
T6 sequence (Q15116 25-170 limits assumed): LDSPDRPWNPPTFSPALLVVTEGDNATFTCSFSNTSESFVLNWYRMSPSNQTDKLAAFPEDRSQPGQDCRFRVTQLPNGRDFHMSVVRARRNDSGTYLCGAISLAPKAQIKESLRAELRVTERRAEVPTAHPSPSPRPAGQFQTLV
Procedure: The AlphaScreen assay (Perkin Elmer) was performed in a 25 μl final volume in 384-well white microtiter plates (Greiner). The reaction buffer contained 1×PBS pH 7.3 (Oxoid, Cat. nr. BRO014G) and 0.05% (v/v) Tween® 20 (Sigma, Cat. nr. P9416). Purified IgG samples were titrated in three fold serial dilutions starting at 500 nM final concentration and incubated with biotinylated human PD1-His/AviTag at 0.6 nM final concentration for 20 minutes at room temperature. […] Followed by addition of the Streptavidin Donor beads at 20 μg/ml (final concentration) and incubation for 30 minutes at room temperature. The emission of light was measured in the EnVision multilabel plate reader (Perkin Elmer) and analysed using the EnVision manager software. Values were reported as Counts Per Second (CPS) and corrected for crosstalk.

[6] = target: T7, human PD1 His tagged (monomeric) (human, UniProt Q15116 25-170, limits assumed); assay: SPR (Biacore), IgG captured, monomeric PD1-His analyte
T7 construct: Soluble monomeric analyte; whole entry named; also called monomeric human PD1; not shown: His tag
T7 sequence (Q15116 25-170 limits assumed): as above
Procedure: (§3) Affinity (KD) of purified IgGs was determined via SPR with antigen in-solution on a Biacore 3000 (GE). A mouse anti-human antibody (CH1 specific) was immobilized on a CM5 Sensor Chip to a level of 2000 RU in acetate buffer at pH 4.5 using amine coupling following the Wizard instructions for two channels. One channel was used for background signal correction. The standard running buffer HBS-EP pH 7.4 was used. Regeneration was performed with a single injection of 10 μl of 10 mM Glycine at pH 1.5 at 20 μl/minute. IgG samples were injected for 2 minutes at 50 nM at 30 μl/min followed by and off-rate of 60 seconds. […] The obtained sensorgrams were analysed using the Biacore 3000 evaluation (BIAevaluation) software. The KD was calculated by simultaneous fitting of the association and dissociation phases to a 1:1 Langmuir binding model.
(§4) Biacore analyses of binding affinity was performed for all IgGs to solution-phase, monomeric human and cyno PD1 proteins.

[7] = target: T8, cynomolgus monkey PD1 His tag (monomeric) (cynomolgus monkey, UniProt Q15116 25-170 (human entry), limits assumed); assay: as above
T8 construct: Soluble monomeric analyte; whole entry named; also called monomeric cyno PD1; not shown: His tag
T8 chain: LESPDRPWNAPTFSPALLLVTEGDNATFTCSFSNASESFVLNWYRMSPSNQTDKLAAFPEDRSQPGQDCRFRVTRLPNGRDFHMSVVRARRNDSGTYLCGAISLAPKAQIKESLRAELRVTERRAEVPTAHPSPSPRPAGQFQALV
Procedure: as §3, §4

Binder | binding result [1] | binding result [2] | binding result (BSA protein) | EC50 [3] [nM] | EC50 [4] [nM] | IC50 [5] [nM] | Kd [6] [nM] | koff [6] [s⁻¹] | kon [6] [M⁻¹ s⁻¹] | Kd [7] [nM] | koff [7] [s⁻¹] | kon [7] [M⁻¹ s⁻¹]
IgG1-08 (antibody, V domains shown, Designer; human IgG1null + Ckappa; also called Antibody IgG1-08; MAB08) VH: EVQLVESGGGLVQPGGSLRLSCAASGFTFSSYLMSWVRQAPGKGLEWVATISGGGSEKYYVDSVKGRFTISRDNAKNSLYLQMNSLRAEDTAVYYCARQLYGFDYWGQGTLVTVSS VL: not shown | no binding | no binding | no binding | 1.55 | 2.03 | 2.36 | 1.47 | 0.00028 | 190000 | 3.4 | 0.00052 | 150000
IgG1-05 (antibody, V domains shown, Designer; human IgG1null + Ckappa; also called Antibody IgG1-05) VH: EVQLVESGGGLVQPGGSLRLSCAASGFTFSSYLMSWVRQAPGKGLEWVATISGGGSEKYYVDSVKGRFTISRDNAKNSLYLQMNSLRAEDTAVYYCARQVYYFDYWGQGTLVTVSS VL: not shown | no binding | no binding | no binding | 1.66 | 2.52 | 1.66 | 1.91 | 0.00029 | 150000 | 2.8 | 0.00033 | 120000
IgG1-06D02 (antibody, V domains shown, Library-derived; human IgG1null + Ckappa; also called Clone 06D02) VH: EVQLVESGGGLVQPGGSLRLSCAASGFTFSSYLMSWVRQAPGKGLEWVATISGGGSETYYVDSVKGRFTISRDNAKNSLYLQMNSLRAEDTAVYYCARQLYGFDYWGQGTLVTVSS VL: not shown | no binding | no binding | no binding | 1.78 | 1.56 | 2.63 | 1.3 | 0.00025 | 200000 | 4.9 | 0.00062 | 130000
